Results on two molecules are retold here after PMC4495402.

This experiment addresses Xenopus histone H3/H4 tetramer (Xenopus), P84233. The experiment can be described thus: SEC-MALS. As to conditions: remark: other sources report otherwise.

B1: human Spt2 histone-binding domain 571–685 (hSpt2C), Q68D10 571-685 (domain or fragment)
chain: GPQRLPFPTGYKRQREYEEEDDDDDEYDSEMEDFIEDEGEPQEEISKHIREIFGYDRKKYKDESDYALRYMESSWKEQQKEEAKSLRLGMQEDLEEMRREEEEMQRRRAKKLKRR
B1 came in with a stoichiometry N of 1.

B2: SUMO-tagged hSpt2C(571–685), Q68D10 571-685 (domain or fragment)
chain: GPQRLPFPTGYKRQREYEEEDDDDDEYDSEMEDFIEDEGEPQEEISKHIREIFGYDRKKYKDESDYALRYMESSWKEQQKEEAKSLRLGMQEDLEEMRREEEEMQRRRAKKLKRR
With B2, the stoichiometry N was found to be 1.

As usually defined, the stoichiometry N is a count of units in the complex or per binding partner.
